US20130005012A1, “ENZYMATIC SYSTEM FOR MONOMER SYNTHESIS” (PHYTOGENE, INC., priority 2011, published 2013)

B3: yeast FDC (ferulic acid decarboxylase, FDC1, Saccharomyces cerevisiae) in bait vector pGBKT7-Gateway (enzyme)
chain: MRKLNPALEFRDFIQVLKDEDDLIEITEEIDPNLEVGAIMRKAYESHLPAPLFKNLKGASKDLFSILGCPAGLRSKEKGDHGRIAHHLGLDPKTTIKEIIDYLLECKEKEPLPPITVPVSSAPCKTHILSEEKIHLQSLPTPYLHVSDGGKYLQTYGMWILQTPDKKWTNWSIARGMVVDDKHITGLVIKPQHIRQIADSWAAIGKANEIPFALCFGVPPAAILVSSMPIPEGVSESDYVGAILGESVPVVKCETNDLMVPATSEMVFEGTLSLTDTHLEGPFGEMHGYVFKSQGHPCPLYTVKAMSYRDNAILPVSNPGLCTDETHTLIGSLVATEAKELAIESGLPILDAFMPYEAQALWLILKVDLKGLQALKTTPEEFCKKVGDIYFRTKVGFIVHEIILVADDIDIFNFKEVIWAYVTRHTPVADQMAFDDVTSFPLAPFVSQSSRSKTMKGGKCVTNCIFRQQYERSFDYITCNFEKGYPKGLVDKVNENWKRYGYK
notes: Yeast two-hybrid bait fusion expressed in Clontech Y2HGold cells; also called FDC (Bait vector); not shown: fusion partner encoded by yeast two-hybrid bait vector pGBKT7-Gateway

Legend:
FDC1 = target: T1, FDC1 (Saccharomyces cerevisiae, UniProt Q03034); test: Effect of metal ions on activity of purified FDC1; format: biochemical; details: 10 mM metal ion, 1.4 mM tCA, pH 6.5, 5 minutes at 30° C., versus control without metal ions
T1 construct: 6xHis (N-terminal tag of vector pDEST17); made in house; host or cells: E. coli BL21(DE3)
T1 sequence (Q03034 1-503): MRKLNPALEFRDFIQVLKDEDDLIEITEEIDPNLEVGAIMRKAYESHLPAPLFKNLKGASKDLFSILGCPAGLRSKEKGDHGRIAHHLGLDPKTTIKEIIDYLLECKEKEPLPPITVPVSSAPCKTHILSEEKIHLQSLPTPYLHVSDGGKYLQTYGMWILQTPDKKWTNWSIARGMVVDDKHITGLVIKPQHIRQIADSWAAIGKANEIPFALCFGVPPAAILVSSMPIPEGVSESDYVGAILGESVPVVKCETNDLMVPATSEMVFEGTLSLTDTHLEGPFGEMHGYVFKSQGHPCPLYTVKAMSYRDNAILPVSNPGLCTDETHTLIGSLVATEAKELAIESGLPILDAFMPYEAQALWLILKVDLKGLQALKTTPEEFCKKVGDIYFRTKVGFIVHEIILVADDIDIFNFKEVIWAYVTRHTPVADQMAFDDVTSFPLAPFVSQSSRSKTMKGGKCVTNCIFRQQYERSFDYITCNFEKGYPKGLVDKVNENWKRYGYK
Description: To study the effect of metal ions on FDC1 activity, we carried out reactions with various metal ions, including ZnSO4, FeCl3, MnCl2, MgSO4, CaCl2, MnSO4, and FeSO4. Reaction mixtures of 25 mM potassium phosphate buffer pH 6.5 containing 1.4 mM tCA, 5 mM DTT, 10 mM metal ion, and 0.5 mg purified FDC1 adjusted to a final volume of 1 mL were incubated for 5 minutes at 30° C. After the reaction, 1 mL of propanol was added to the reaction mixtures to solubilize styrene. The experimental control used the same conditions except the reaction mixture contained no metal ions. The experimental negative control used the same conditions except the reaction mixture contained no substrate. […] The effects of Zn^2+ and Fe^3+ on FDC1 activity were further investigated using EDTA to cancel out the effects of the metal ions. Reaction mixtures of 25 mM potassium phosphate buffer pH 6.5 containing 1.4 mM tCA, 5 mM DTT, 10 mM metal ion, 10 mM EDTA and 0.5 mg purified FDC1 were adjusted to a final volume of 1 mL, and were incubated for 5 minutes at 30° C. After the reaction, 1 mL of propanol was added to the reaction mixtures to solubilize styrene. The experimental control used the same conditions except the reaction mixture contained no metal ions or EDTA. The experimental negative control used the same conditions except the reaction mixture contained no substrate. […] Based on results presented in FIGS. 10A and 10B, enzyme activity of FDC1 can be increased by metal ions and it was not due to experimental artifact.

[1] = target: T2, yeast FDC (ferulic acid decarboxylase, FDC1, Saccharomyces cerevisiae) in prey vector pGADT7-Gateway (Saccharomyces cerevisiae, UniProt Q03034 1-503); test: yeast two-hybrid, growth on SD-Trp-Leu-His plate (bait PAD1, prey FDC)
T2 construct: Yeast two-hybrid prey fusion expressed in Clontech Y2HGold cells; also called FDC (Prey vector); not shown: fusion partner encoded by yeast two-hybrid prey vector pGADT7-Gateway
T2 sequence: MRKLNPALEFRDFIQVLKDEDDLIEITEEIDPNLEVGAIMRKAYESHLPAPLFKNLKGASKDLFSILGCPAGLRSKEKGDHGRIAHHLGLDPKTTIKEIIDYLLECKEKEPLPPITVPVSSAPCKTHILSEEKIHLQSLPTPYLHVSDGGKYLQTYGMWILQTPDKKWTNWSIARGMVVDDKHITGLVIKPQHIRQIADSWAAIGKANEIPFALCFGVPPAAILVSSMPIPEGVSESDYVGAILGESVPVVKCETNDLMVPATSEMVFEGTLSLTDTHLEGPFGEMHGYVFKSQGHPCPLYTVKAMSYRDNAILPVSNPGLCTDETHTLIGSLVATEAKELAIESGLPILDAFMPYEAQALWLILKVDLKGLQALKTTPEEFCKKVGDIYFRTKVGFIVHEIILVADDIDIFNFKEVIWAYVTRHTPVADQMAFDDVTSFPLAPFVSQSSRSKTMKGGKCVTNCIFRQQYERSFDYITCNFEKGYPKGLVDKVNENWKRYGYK
Description: (§1) We used yeast-two-hybrid system to test this hypothesis. […] Vectors pGBKT7-Gateway and pGADT7-Gateway are gifts from Dr. Brian P. Downes, Department of Biology, St Louis University (St Louis, Mo.). The resulting vectors were used to transform Clontech Y2HGold cells by one step transformation protocol as described in Example 4. 100 μl of the transformed cultures were spread on SD-Trp-Leu as well as SD-Trp-Leu-His plates and incubated at 30° C. for 3 days.

[2] = target: B3; test: yeast two-hybrid, growth on SD-Trp-Leu-His plate (bait FDC, prey PAD1)
Description: as §1

cinnamic acid [3] = test: Feeding cinnamic acid to Wat11 yeast expressing the enzyme, HPLC of products; format: cell-based, S. cerevisiae; details: 2 mM cinnamic acid, extracted after 8 hours
Description: (§2) 0.8 ml of well-suspended cultures was taken out of the culture tube and 0.4 ml of ethyl acetate was added. The mixture was votexed at the maximum speed for half an hour and centrifuged at 15,000 rpm for 10 min at room temperature.
The extracted samples were analyzed by HPLC. HPLC was performed with an Agilent 1100 Series HPLC system using a SymmetryShield C18 column (Waters, 150×3.9 mm). The mobile phase consisted of solvent A (0.1% trifluoroacetic acid) and solvent B (acetonitrile). The gradient elution procedure was as follows: 0-5 min, 0% of B; 5-35 min, a linear gradient from 0% to 90% of B; 35-38 min, 90% of B; 38-40 min, 0% of B. The flow rate was 1.0 ml/min. The injection volume was 30 μl. Peaks for substrate and products areas were monitored at 260 nm. With this method, the retention times for cinnamic acid, p-coumaric acid, ferulic acid, styrene, 4-hydroxystyrene, and 4-vinylguaiacol (4-VG) were 21.5, 17.7, 17.7, 27.8, 22.3 and 22.1 min, respectively. […]
After transformation, 100 μl of the transgenic yeast culture was spread on SD-trp medium (Clontech, Mountain View, Calif.) and incubated at 30° C. for 3 days. […] 2 mM cinnamic acid was added to 2 d-old yeast culture and the products were extracted with ethyl acetate after 8 hours and analyzed by HPLC.

p-coumaric acid = test: Feeding p-coumaric acid to Wat11 yeast expressing FDC, HPLC of products; format: cell-based, S. cerevisiae
Description: as §2
(§3) The extracted samples were analyzed by HPLC. HPLC was performed with an Agilent 1100 Series HPLC system using a SymmetryShield C18 column (Waters, 150×3.9 mm). The mobile phase consisted of solvent A (0.1% trifluoroacetic acid) and solvent B (acetonitrile). The gradient elution procedure was as follows: 0-5 min, 0% of B; 5-35 min, a linear gradient from 0% to 90% of B; 35-38 min, 90% of B; 38-40 min, 0% of B. The flow rate was 1.0 ml/min. The injection volume was 30 μl. Peaks for substrate and products areas were monitored at 260 nm. With this method, the retention times for cinnamic acid, p-coumaric acid, ferulic acid, styrene, 4-hydroxystyrene, and 4-vinylguaiacol (4-VG) were 21.5, 17.7, 17.7, 27.8, 22.3 and 22.1 min, respectively.

ferulic acid [4] = test: Feeding ferulic acid to Wat11 yeast expressing FDC, HPLC of products; format: cell-based, S. cerevisiae
Description: as §2, §3

cinnamic acid [5] = test: Feeding cinnamic acid to E. coli BL21AI expressing the enzyme, HPLC of products; format: cell-based; details: 2 mM cinnamic acid, 37° C.
Description: as §2, §3
Plasmid pDEST17-PAD1 was transformed into E. coli strain BL21AI competent cells (Invitrogen). An overnight culture (2 ml) was inoculated into 40 ml of LB medium supplemented with 100 µg/ml ampicillin. Bacteria were grown at 37° C. in a shaker at 250 rpm for 3 h and then 0.2% (w/v) arabinose was added to the culture, followed by the addition of 2 mM of cinnamic acid. […]

ferulic acid [6] = test: Feeding ferulic acid to E. coli BL21AI expressing FDC, HPLC of products; format: cell-based
Description: as §2, §3
In E. coli, pDEST17-FDC was transformed into E. coli strain BL21AI competent cells (Invitrogen). An overnight culture (2 ml) was inoculated into 40 ml of LB medium supplemented with 100 µg/ml ampicillin. […] The induced culture was further incubated at 37° C. and samples were taken at different time points for the analysis.

cinnamic acid [7] = test: Comparison of PAD1, FDC and OHBA1 activities in E. coli fed 1-40 mM cinnamic acid; format: cell-based
Description: Sample (0.5 ml) was taken various treatments, and extracted with 0.3 ml of ethyl acetate. The upper phase was used for the analysis of the product styrene, and the lower phase for the analysis of cinnamic acid left in the medium.

[8] = target: T2, yeast FDC (ferulic acid decarboxylase, …); test: yeast two-hybrid, growth on SD-Trp-Leu-His plate (bait FDC, prey FDC)
Description: as §1

Molecule: [Ca+2].[Cl-].[Cl-] [Ca^+2, CaCl2]
- effect on FDC1 activity (styrene produced) (FDC1): increased the activity of FDC1

Molecule: [Cl][Fe]([Cl])[Cl] [Fe^+3, FeCl3]
- effect on FDC1 activity (styrene produced) (FDC1): increased the activity of FDC1

Molecule: O=S(=O)([O-])[O-].[Mg+2] [Mg^+2, MgSO4]
- effect on FDC1 activity (styrene produced) (FDC1): increased the activity of FDC1

Molecule: O=S(=O)([O-])[O-].[Zn+2] [Zn^+2, ZnSO4]
- effect on FDC1 activity (styrene produced) (FDC1): increased the activity of FDC1

B1: yeast PAD1 (phenylacrylic acid decarboxylase, Saccharomyces cerevisiae) in bait vector pGBKT7-Gateway (enzyme)
chain: VAITGATGVALGIRLLQVLKELSVETHLVISKWGAATMKYETDWEPHDVAALATKTYSVRDVSACISSGSFQHDGMIVVPCSMKSLAAIRIGFTEDLITRAADVSIKENRKLLLVTRETPLSSIHLENMLSLCRAGVIIFPPVPAFYTRPKSLHDLLEQSVGRILDCFGIHADTFPRWEGIKSK
notes: Yeast two-hybrid bait fusion expressed in Clontech Y2HGold cells; also called PAD1 (Bait vector); not shown: fusion partner encoded by yeast two-hybrid bait vector pGBKT7-Gateway
- binding result [1]: no binding

B2: yeast PAD1 (phenylacrylic acid decarboxylase, Saccharomyces cerevisiae) in prey vector pGADT7-Gateway (enzyme)
chain: VAITGATGVALGIRLLQVLKELSVETHLVISKWGAATMKYETDWEPHDVAALATKTYSVRDVSACISSGSFQHDGMIVVPCSMKSLAAIRIGFTEDLITRAADVSIKENRKLLLVTRETPLSSIHLENMLSLCRAGVIIFPPVPAFYTRPKSLHDLLEQSVGRILDCFGIHADTFPRWEGIKSK
notes: Yeast two-hybrid prey fusion expressed in Clontech Y2HGold cells; also called PAD1 (Prey vector); not shown: fusion partner encoded by yeast two-hybrid prey vector pGADT7-Gateway
- binding result [2]: no binding

Molecule: B3
- styrene production upon feeding of cinnamic acid (cinnamic acid [3]): production of styrene
- 4-hydroxystyrene production upon feeding of p-coumaric acid (p-coumaric acid): production of 4-hydroxystyrene
- 4-VG production upon feeding of ferulic acid (ferulic acid [4]): production of 4-VG
- styrene production upon feeding of cinnamic acid (cinnamic acid [5]): Production of styrene was observed
- 4-vinylguaiacol (4-VG) production upon feeding of ferulic acid (ferulic acid [6]): Production of 4-vinylguaiacol (4-VG) was also observed
- styrene biosynthesis (cinnamic acid [7]; E. coli, after feeding on cinnamic acid substrate for 2 h): 94.6 mg/L
- binding result [8]: binds

B4: PAD1: phenylacrylic acid decarboxylase from S. cerevisiae, SEQ ID NO:10 encoded by SEQ ID NO:9 (protein, listed as Saccharomyces cerevisiae)
chain: MLLFPRRTNIAFFKTTGIFANFPLLGRTITTSPSFLTHKLSKEVTRASTSPPRPKRIVVAITGATGVALGIRLLQVLKELSVETHLVISKWGAATMKYETDWEPHDVAALATKTYSVRDVSACISSGSFQHDGMIVVPCSMKSLAAIRIGFTEDLITRAADVSIKENRKLLLVTRETPLSSIHLENMLSLCRAGVIIFPPVPAFYTRPKSLHDLLEQSVGRILDCFGIHADTFPRWEGIKSK
- styrene production upon feeding of cinnamic acid (cinnamic acid [3]): no styrene can be observed
- styrene production upon feeding of cinnamic acid (cinnamic acid [5]): no styrene production was observed
- styrene production upon feeding of cinnamic acid (cinnamic acid [7]; E. coli in LB+Amp medium, 1-10 mM cinnamic acid): failed to produce any styrene
